Source: publication PMC2958364 (Journal of molecular biology, 2008)

What was measured:
[1] = biological target: αvβ6 integrin on A375Pβ6 cells (Homo sapiens (A375P alpha-V, human …, UniProt P06756;P18564)); experiment: flow cytometry on cells
[2] = biological target: αvβ6 integrin, purified from CHO αvβ6 cells (Homo sapiens (assumed), recombinant …, UniProt P06756;P18564); experiment: ELISA
[3] = biological target: αvβ3 integrin, immobilized (Homo sapiens (assumed), UniProt P06756;P05106); experiment: ELISA
Sequence of αvβ3 integrin, immobilized (P06756 31-1048, chain 1 of 2): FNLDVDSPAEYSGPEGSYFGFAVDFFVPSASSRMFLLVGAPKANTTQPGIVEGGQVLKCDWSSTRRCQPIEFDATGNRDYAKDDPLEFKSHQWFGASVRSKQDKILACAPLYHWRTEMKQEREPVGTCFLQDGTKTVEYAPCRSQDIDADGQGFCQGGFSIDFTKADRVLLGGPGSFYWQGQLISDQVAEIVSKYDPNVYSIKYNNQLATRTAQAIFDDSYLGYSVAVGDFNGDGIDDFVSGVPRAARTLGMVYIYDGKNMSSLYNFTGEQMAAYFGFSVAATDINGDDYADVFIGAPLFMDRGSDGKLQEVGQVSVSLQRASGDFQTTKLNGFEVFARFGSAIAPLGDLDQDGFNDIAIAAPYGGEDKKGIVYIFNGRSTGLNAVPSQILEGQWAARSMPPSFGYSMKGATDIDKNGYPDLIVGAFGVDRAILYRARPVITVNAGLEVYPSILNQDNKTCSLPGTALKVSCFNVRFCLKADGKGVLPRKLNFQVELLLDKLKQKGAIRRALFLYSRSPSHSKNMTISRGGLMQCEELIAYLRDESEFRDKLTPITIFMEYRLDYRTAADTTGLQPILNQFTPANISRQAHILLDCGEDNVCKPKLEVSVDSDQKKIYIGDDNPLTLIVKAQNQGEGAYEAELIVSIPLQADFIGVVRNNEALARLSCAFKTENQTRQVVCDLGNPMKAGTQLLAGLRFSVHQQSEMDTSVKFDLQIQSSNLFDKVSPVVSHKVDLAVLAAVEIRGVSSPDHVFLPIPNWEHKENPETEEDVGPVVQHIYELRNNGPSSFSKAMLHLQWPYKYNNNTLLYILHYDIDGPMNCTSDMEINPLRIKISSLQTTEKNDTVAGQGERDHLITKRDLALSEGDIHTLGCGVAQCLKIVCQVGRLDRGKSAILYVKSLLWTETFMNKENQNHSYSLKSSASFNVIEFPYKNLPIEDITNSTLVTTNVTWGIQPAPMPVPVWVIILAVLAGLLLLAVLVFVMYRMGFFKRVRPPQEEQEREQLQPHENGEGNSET
Sequence of αvβ3 integrin, immobilized (P05106 27-718, chain 2 of 2): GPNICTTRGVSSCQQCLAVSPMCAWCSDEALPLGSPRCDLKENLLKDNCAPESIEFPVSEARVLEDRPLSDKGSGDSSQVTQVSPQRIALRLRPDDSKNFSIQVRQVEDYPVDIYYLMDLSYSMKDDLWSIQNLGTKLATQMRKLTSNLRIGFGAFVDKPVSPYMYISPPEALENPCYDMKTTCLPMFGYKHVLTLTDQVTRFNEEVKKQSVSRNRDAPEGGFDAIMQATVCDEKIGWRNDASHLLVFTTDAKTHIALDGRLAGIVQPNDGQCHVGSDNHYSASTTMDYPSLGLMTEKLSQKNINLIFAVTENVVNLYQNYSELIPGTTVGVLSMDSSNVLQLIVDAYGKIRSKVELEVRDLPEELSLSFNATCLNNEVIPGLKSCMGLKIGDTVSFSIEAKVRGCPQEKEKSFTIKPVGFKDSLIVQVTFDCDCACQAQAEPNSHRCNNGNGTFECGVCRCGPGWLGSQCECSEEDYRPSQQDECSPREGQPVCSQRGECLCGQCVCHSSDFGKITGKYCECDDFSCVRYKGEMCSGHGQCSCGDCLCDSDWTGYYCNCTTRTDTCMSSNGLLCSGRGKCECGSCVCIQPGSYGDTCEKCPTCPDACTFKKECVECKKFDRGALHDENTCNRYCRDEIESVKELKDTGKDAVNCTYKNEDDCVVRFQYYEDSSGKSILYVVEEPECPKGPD

Sequence of αvβ6 integrin on A375Pβ6 cells (Homo sapiens (P06756 31-1048, stated change not applied, chain 1 of 2): as the sequence (P06756 31-1048, chain 1 of 2) above
Sequence of αvβ6 integrin on A375Pβ6 cells (Homo sapiens (P18564 22-788, chain 2 of 2): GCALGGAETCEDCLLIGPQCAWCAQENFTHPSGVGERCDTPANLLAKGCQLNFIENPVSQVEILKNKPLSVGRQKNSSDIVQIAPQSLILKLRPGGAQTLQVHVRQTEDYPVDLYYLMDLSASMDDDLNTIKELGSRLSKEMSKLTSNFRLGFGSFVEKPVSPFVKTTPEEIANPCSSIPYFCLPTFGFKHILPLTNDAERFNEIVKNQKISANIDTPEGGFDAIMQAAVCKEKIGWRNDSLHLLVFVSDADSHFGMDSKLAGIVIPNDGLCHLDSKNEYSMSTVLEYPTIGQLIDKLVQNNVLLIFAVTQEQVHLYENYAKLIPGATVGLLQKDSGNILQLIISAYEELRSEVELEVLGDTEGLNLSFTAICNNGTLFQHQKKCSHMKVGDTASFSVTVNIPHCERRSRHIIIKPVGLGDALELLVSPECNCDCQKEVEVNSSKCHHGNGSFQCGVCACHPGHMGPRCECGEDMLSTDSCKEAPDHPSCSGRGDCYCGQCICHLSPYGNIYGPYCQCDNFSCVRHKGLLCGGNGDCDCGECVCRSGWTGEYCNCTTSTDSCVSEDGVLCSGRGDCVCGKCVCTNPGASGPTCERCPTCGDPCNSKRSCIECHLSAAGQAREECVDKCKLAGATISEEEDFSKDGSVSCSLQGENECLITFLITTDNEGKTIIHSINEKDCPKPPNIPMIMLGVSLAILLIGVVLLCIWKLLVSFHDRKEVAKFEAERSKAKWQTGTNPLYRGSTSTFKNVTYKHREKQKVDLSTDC
Sequence of αvβ6 integrin, purified from CHO αvβ6 cells (P06756 31-1048, chain 1 of 2): as the sequence (P06756 31-1048, chain 1 of 2) above
Sequence of αvβ6 integrin, purified from CHO αvβ6 cells (P18564 22-788, chain 2 of 2): as the sequence (P18564 22-788, chain 2 of 2) above

B1: MFE-23 (scFv, V domains shown)
VH: QVKLQQSGAELVRSGTSVKLSCTASGFNIKDSYMHWLRQGPEQGLEWIGWIDPENGDTEYAPKFQGKATFTTDTSSNTAYLQLSSLTSEDTAVYYCNEGTPTGPYYFDYWGQGTTVTVSS
VL: ENVLTQSPAIMSASPGEKVTITCSASSSVSYMHWFQQKPGTSPKLWIYSTSNLASGVPARFSGSGSGTSYSLTISRMEAEDAATYYCQQRSSYPLTFGAGTKLELK
binding result [1]: no binding (tested: 50 μg/ml)
binding result [2]: no binding (tested: 5 μg/ml)
binding result [3]: no binding (tested: 5 μg/ml)
